The assay concerns the target bRSV ATue51908 postF (bovine respiratory syncytial virus, strain ATue51908), P22167. The assay can be described thus: biolayer interferometry (Octet), variant on Ni-NTA tip, Fab in solution. The following applies: remark: other sources report otherwise. For orientation: BLI is a label-free optical method that tracks binding on a fibre tip over time.

Some results are limits rather than exact numbers.

B1: MPE8 Fab (Fab, V domains shown)
VH: EVQLVESGGGLVKPGGSLRLSCAASGFTFSSYSMNWVRQAPGKGLEWVSSISASSSYSDYADSAKGRFTISRDNAKTSLFLQMNSLRAEDTAIYFCARARATGYSSITPYFDIWGQGTLVTVSS
VL: QSVVTQTPSVSGAPGQRVTISCTGSSSNIGAGYDVHWYQQLPGTAPKLLIYDNNNRPSGVPDRFSASKSGTSASLAITGLQAEDEADYYCQSYDRNLSGVFGTGTKVTVL
In turn, B1 showed a Kd of more than 1000 nM.

The term Kd denotes the free concentration of one partner at which half of the binding sites on the other are occupied at equilibrium, for simple one-to-one binding. A high value points to weaker binding.
